Reference: paper PMC11032447 (2024)

B1: mouse secretagogin [mouse] / helix-b of the Habc domain of mouse syntaxin-4 [mouse] (parent complex)
chain 1: MDNARRKTPARLDAACFWQIWQRFDKEEKGYIRETELDAFFDHLLAKSGTEDTLMEENVQKVKEQLMTSHNVSKEGRILMKELASMFLSEDENFLLFFRLETPLDNSVEFMQIWRKYDADSSGFISAAELCNFLRDLFLHHKKNISEAELEEYTSTMMKIFDKNKDGRLDLNDLARILALQENFLLQFKMDASSTEERKRDFEKIFAHYDVSKTGALEGPEVDGFVKDMMELVQPSISGVDLDKFREILLRHCDVNKDGKIQKSELALCLGLKINP
chain 2: TPLPEESMKQGLQNLREEIKQLGREVRAQLKAIEPQKE

Variants of: B1
Assay: ITC
chain 1 L270A gave a Kd of 16.2 µM.
